The record followed here is patent US20180291110A1 (Hoffmann-La Roche, published 2018).

Positions count from the first letter of the chain named.

B1: 2/99 VH20/VL2 (antibody, V domains shown)
VH: QSMQESGPGLVKPSQTLSLTCTVSGFSLSSYAMSWIRQHPGKGLEWIGYIWSGGSTDYAPSLKSRVTISVDTSKNQVSLKLSSVTAADTAVYYCARRYGTSYPDYGDANGFDPWGQGTLVTVSS
VL: DIQMTQSPSSLSASVGDRVTITCRASQSISSYLNWYQQKPGKAPKLLIYRASTLASGVPSRFSGSGSGTDFTLTISSLQPEDFATYYCQQSYSSSNVDNTFGGGTKVEIK
B2: 2/99 VH8/VL4 (antibody, V domains shown)
VH: QQLVETGGGLIQPGGSLRLSCAASGFSLSSYAMSWVRQAPGKGLEWIGYIWSGGSTDYASWAKGRFTISKTSTTLYLQMNSLRAEDTAVYYCARRYGTSYPDYGDANGFDPWGQGTLVTVSS
VL: B1 VL with D1A, I2Y, N34S
B3: 2/99 VH19/VL3 (antibody, V domains shown)
VH: B1 VH with V77F
VL: B1 VL with D1A, I2Y
B4: 2/99 VH7/VL3 (antibody, V domains shown)
VH: QQLVETGGGLIQPGGSLRLSCAASGFSLSSYAMSWVRQAPGKGLEWIGYIWSGGSTDYASWAKGRFTISRDNSKNTLYLQMNSLRAEDTAVYYCARRYGTSYPDYGDANGFDPWGQGTLVTVSS
VL: B1 VL with D1A, I2Y
B5: 2/99 VH13/VL4 (antibody, V domains shown)
VH: QVQLQESGPGLVKPSETLSLTCTVSGFSLSSYAMSWIRQPPGKGLEWIGYIWSGGSTDYNPSLKSRVTISVDTSKNQVSLKLSSVTAADTAVYYCARRYGTSYPDYGDANGFDPWGQGTLVTVSS
VL: B1 VL with D1A, I2Y, N34S
B6: 2/99 VH20/VL3 (antibody, V domains shown)
VH: B1 VH
VL: B1 VL with D1A, I2Y
B7: 2/99 VH13/VL3 (antibody, V domains shown)
VH: B5 VH
VL: B1 VL with D1A, I2Y
B8: 2/99 VH22/VL2 (antibody, V domains shown)
VH: B1 VH with I36V, P60S, S61W, L62A
VL: B1 VL
B9: 2/99 VH12/VL3 (antibody, V domains shown)
VH: B5 VH with V78F
VL: B1 VL with D1A, I2Y
B10: 2/99 VH5/VL4 (antibody, V domains shown)
VH: B4 VH with Q2S, L3M, V4E, I47V, S60D, W61S, A62V, Q116P
VL: B1 VL with D1A, I2Y, N34S
B11: 2/99 VH6/VL4 (antibody, V domains shown)
VH: B4 VH with S60D, W61S, A62V
VL: B1 VL with D1A, I2Y, N34S
B12: 2/99 VH9/VL4 (antibody, V domains shown)
VH: B4 VH with V4L, T6S, I11V, S27T, L28F, I47V, S60D, W61S, A62V, R96K
VL: B1 VL with D1A, I2Y, N34S
B13: 2/99 VH5/VL3 (antibody, V domains shown)
VH: B4 VH with Q2S, L3M, V4E, I47V, S60D, W61S, A62V, Q116P
VL: B1 VL with D1A, I2Y
B14: 2/99 VH16/VL4 (antibody, V domains shown)
VH: B1 VH with S2Q, M3L, Q15E, I36V, H39P, A59N, Q116P
VL: B1 VL with D1A, I2Y, N34S
B15: 2/99 VH21/VL3 (antibody, V domains shown)
VH: B1 VH with P60S, S61W, L62A
VL: B1 VL with D1A, I2Y
B16: 2/99 VH2/VL4 (antibody, V domains shown)
VH: EVQLVETGGGLIQPGGSLRLSCAASGFSLSSYAMSWVRQAPGKGLEWVGYIWSGGSTDYADSVKGRFTISRDNSKNTLYLQMNSLRAEDTAVYYCARRYGTSYPDYGDANGFDPWGQGTLVTVSS
VL: B1 VL with D1A, I2Y, N34S
B17: 2/99 VH11/VL3 (antibody, V domains shown)
VH: B4 VH with V4L, T6S, I11V, I47V, S60D, W61S, A62V
VL: B1 VL with D1A, I2Y
B18: 2/99 VH2/VL3 (antibody, V domains shown)
VH: B16 VH
VL: B1 VL with D1A, I2Y
B19: 2/99 VH6/VL3 (antibody, V domains shown)
VH: B4 VH with S60D, W61S, A62V
VL: B1 VL with D1A, I2Y
B20: 2/99 VH21/VL2 (antibody, V domains shown)
VH: B1 VH with P60S, S61W, L62A
VL: B1 VL
B21: 2/99 VH7/VL4 (antibody, V domains shown)
VH: B4 VH
VL: B1 VL with D1A, I2Y, N34S
B22: 2/99 VH15/VL4 (antibody, V domains shown)
VH: B1 VH with S2Q, M3L, Q15E, I36V, H39P, A59N
VL: B1 VL with D1A, I2Y, N34S
B23: 2/99 VH1/VL3 (antibody, V domains shown)
VH: B4 VH with Q1V, I47V, S60D, W61S, A62V
VL: B1 VL with D1A, I2Y
B24: 2/99 VH12/VL4 (antibody, V domains shown)
VH: B5 VH with V78F
VL: B1 VL with D1A, I2Y, N34S
B25: 2/99 VH8/VL3 (antibody, V domains shown)
VH: B2 VH
VL: B1 VL with D1A, I2Y
B26: 2/99 VH23-DANG/VL3 (antibody, V domains shown)
VH: QSMQESGPGLVKPSQTLSLTCTVSGFSLSSYAMSWIRQHPGKGLEWIGYIWSGGSTDYASWAKSRVTISKTSTTVSLKLSSVTAADTAVYYCARRYGTSYPDYGDANGFDPWGQGTLVTVSS
VL: B1 VL with D1A, I2Y
B27: 2/99 VH18/VL3 (antibody, V domains shown)
VH: B5 VH with E16Q, P40H, N60A, V78F
VL: B1 VL with D1A, I2Y
B28: 2/99 VH9/VL3 (antibody, V domains shown)
VH: B4 VH with V4L, T6S, I11V, S27T, L28F, I47V, S60D, W61S, A62V, R96K
VL: B1 VL with D1A, I2Y
B29: 2/99 VH17/VL3 (antibody, V domains shown)
VH: B1 VH with S2Q, M3L, Q15E, I36V, H39P, A59N, V70K, Q116P
VL: B1 VL with D1A, I2Y
B30: 2/99 VH11/VL4 (antibody, V domains shown)
VH: B4 VH with V4L, T6S, I11V, I47V, S60D, W61S, A62V
VL: B1 VL with D1A, I2Y, N34S
B31: 2/99 VH1/VL4 (antibody, V domains shown)
VH: B4 VH with Q1V, I47V, S60D, W61S, A62V
VL: B1 VL with D1A, I2Y, N34S
B32: 2/99 VH22/VL3 (antibody, V domains shown)
VH: B1 VH with I36V, P60S, S61W, L62A
VL: B1 VL with D1A, I2Y
B33: 2/99 VH15/VL3 (antibody, V domains shown)
VH: B1 VH with S2Q, M3L, Q15E, I36V, H39P, A59N
VL: B1 VL with D1A, I2Y
B34: 2/99 VH16/VL3 (antibody, V domains shown)
VH: B1 VH with S2Q, M3L, Q15E, I36V, H39P, A59N, Q116P
VL: B1 VL with D1A, I2Y

The koff is the first-order rate constant of dissociation.

T1 sequence (P02786 89-760 limits assumed): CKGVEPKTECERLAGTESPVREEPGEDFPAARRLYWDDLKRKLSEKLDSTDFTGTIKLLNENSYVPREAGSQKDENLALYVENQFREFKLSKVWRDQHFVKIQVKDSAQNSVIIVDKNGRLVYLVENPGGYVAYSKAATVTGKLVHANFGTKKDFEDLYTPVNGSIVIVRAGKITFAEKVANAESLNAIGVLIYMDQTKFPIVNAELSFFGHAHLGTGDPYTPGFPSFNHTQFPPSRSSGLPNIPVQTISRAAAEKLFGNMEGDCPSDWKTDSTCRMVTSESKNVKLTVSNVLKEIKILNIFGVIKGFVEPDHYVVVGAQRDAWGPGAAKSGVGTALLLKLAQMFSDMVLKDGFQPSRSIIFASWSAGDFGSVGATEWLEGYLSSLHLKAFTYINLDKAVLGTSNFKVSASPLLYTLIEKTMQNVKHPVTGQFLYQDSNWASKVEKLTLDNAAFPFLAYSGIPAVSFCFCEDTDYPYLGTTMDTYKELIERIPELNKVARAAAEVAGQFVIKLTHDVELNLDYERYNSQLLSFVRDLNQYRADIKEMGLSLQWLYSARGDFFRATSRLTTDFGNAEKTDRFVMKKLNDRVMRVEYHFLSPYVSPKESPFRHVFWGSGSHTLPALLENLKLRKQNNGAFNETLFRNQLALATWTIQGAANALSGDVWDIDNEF

This test has as its target T1, human transferrin receptor (recombinant, for surface plasmon resonance) (human, UniProt P02786 89-760).
T1 construct: also called huTfR; human transferrin receptor-biotinylated
Kind of test: SPR 25C.
B1: the koff was 0.00525 s⁻¹.

Turning to B2, the dissociation rate constant (koff) was 0.000788 s⁻¹.

On to B3, for which the koff is 0.001 s⁻¹.

Take B4: the koff worked out at 0.00145 s⁻¹.

For the molecule B5, the dissociation rate constant (koff) came out at 0.0013 s⁻¹.

With B6, the koff is 0.00715 s⁻¹.

With B7, the koff is 0.00277 s⁻¹.

As for B8, the off-rate (koff) worked out at 0.00126 s⁻¹.

On to B9, for which the off-rate constant (koff) came out at 0.00586 s⁻¹.

On to B10, for which the koff was found to be 0.00238 s⁻¹.

Regarding B11, the koff came out at 0.00187 s⁻¹.

B12: the koff amounted to 0.0027 s⁻¹.

As for B13, the koff was found to be 0.00316 s⁻¹.

Regarding B14, the off-rate constant (koff) is 0.00127 s⁻¹.

On to B15, for which the off-rate (koff) was 0.00194 s⁻¹.

Turning to B16, the off-rate constant (koff) worked out at 0.00263 s⁻¹.

Turning to B17, the koff turned out to be 0.00565 s⁻¹.

Take B18: the koff amounted to 0.00384 s⁻¹.

Regarding B19, the off-rate constant (koff) was 0.00282 s⁻¹.

For B20, the koff worked out at 0.00138 s⁻¹.

B21: the koff amounted to 0.00125 s⁻¹.

For the molecule B22, the koff was 0.00134 s⁻¹.

With B23, the koff was 0.00431 s⁻¹.

B24: the off-rate constant (koff) stood at 0.00311 s⁻¹.

Consider B25, for which the off-rate constant (koff) stood at 0.001 s⁻¹.

With B26, the koff worked out at 0.000783 s⁻¹.

With B27, the koff was 0.00665 s⁻¹.

For B28, the koff came out at 0.00417 s⁻¹.

On to B29, for which the koff came out at 0.000843 s⁻¹.

As for B30, the off-rate constant (koff) was 0.00388 s⁻¹.

B31: the koff came out at 0.00256 s⁻¹.

Turning to B32, the koff was 0.00143 s⁻¹.

Regarding B33, the koff stood at 0.00207 s⁻¹.

Take B34: the koff is 0.00173 s⁻¹.
